From article PMC7367873, “Dissecting the sequence determinants for dephosphorylation by the catalytic subunits of phosphatases PP1 and PP2A” (Nature Communications, 2020)

Legend:
[1] = system: GFP-14-3-3β and its binding proteins; assay: GFP-14-3-3β co-IP with LC-MS/MS label-free quantification, untreated versus PP1c-treated; parameters: species or system human; settings: 3 replicates each
GFP-14-3-3β = GFP-14-3-3β co-IP with LC-MS/MS, untreated GFP-14-3-3β versus GFP control (14-3-3 interactome); type: binding, human; settings: 3 replicates each
[2] = PP1 vs untreated, LFQ intensities
[3] = untreated vs GFP, LFQ intensities

Molecule	Difference (log2), PP1 vs untreated [1, 2] [log2]	Difference (log2), PP1 vs untreated ([1]; log2 difference, pairwise comparison PP1 vs untreated, label-free quantification)	Difference (log2), untreated vs GFP (GFP-14-3-3β; [3]) [log2]	Difference (log2), untreated vs GFP (GFP-14-3-3β; log2 difference, pairwise comparison untreated vs GFP, label-free quantification)
RRBP1 (protein, UniProt Q9P2E9 1-1410, looked up) Ribosome-binding protein 1: MDIYDTQTLGVVVFGGFMVVSAIGIFLVSTFSMKETSYEEALANQRKEMAKTHHQKVEKKKKEKTVEKKGKTKKKEEKPNGKIPDHDPAPNVTVLLREPVRAPAVAVAPTPVQPPIIVAPVATVPAMPQEKLASSPKDKKKKEKKVAKVEPAVSSVVNSIQVLTSKAAILETAPKEVPMVVVPPVGAKGNTPATGTTQGKKAEGTQNQSKKAEGAPNQGRKAEGTPNQGKKTEGTPNQGKKAEGTPNQGKKAEGTPNQGKKAEGAQNQGKKVDTTPNQGKKVEGAPTQGRKAEGAQNQAKKVEGAQNQGKKAEGAQNQGKKGEGAQNQGKKAEGAQNQGKKAEGAQNQGKKAEGAQNQGKKAEGAQNQGKKAEGAQNQGKKAEGAQNQGKKVEGAQNQGKKAEGAQNQGKKAEGAQNQGKKAEGAQNQGKKAEGAQNQGKKAEGAQNQGKKAEGAQNQGKKAEGAQNQGKKVEGAQNQGKKAEGAQNQGKKAEGAQNQGKKAEGAQNQGQKGEGAQNQGKKTEGAQGKKAERSPNQGKKGEGAPIQGKKADSVANQGTKVEGITNQGKKAEGSPSEGKKAEGSPNQGKKADAAANQGKKTESASVQGRNTDVAQSPEAPKQEAPAKKKSGSKKKGEPGPPDADGPLYLPYKTLVSTVGSMVFNEGEAQRLIEILSEKAGIIQDTWHKATQKGDPVAILKRQLEEKEKLLATEQEDAAVAKSKLRELNKEMAAEKAKAAAGEAKVKKQLVAREQEITAVQARMQASYREHVKEVQQLQGKIRTLQEQLENGPNTQLARLQQENSILRDALNQATSQVESKQNAELAKLRQELSKVSKELVEKSEAVRQDEQQRKALEAKAAAFEKQVLQLQASHRESEEALQKRLDEVSRELCHTQSSHASLRADAEKAQEQQQQMAELHSKLQSSEAEVRSKCEELSGLHGQLQEARAENSQLTERIRSIEALLEAGQARDAQDVQASQAEADQQQTRLKELESQVSGLEKEAIELREAVEQQKVKNNDLREKNWKAMEALATAEQACKEKLLSLTQAKEESEKQLCLIEAQTMEALLALLPELSVLAQQNYTEWLQDLKEKGPTLLKHPPAPAEPSSDLASKLREAEETQSTLQAECDQYRSILAETEGMLRDLQKSVEEEEQVWRAKVGAAEEELQKSRVTVKHLEEIVEKLKGELESSDQVREHTSHLEAELEKHMAAASAECQNYAKEVAGLRQLLLESQSQLDAAKSEAQKQSDELALVRQQLSEMKSHVEDGDIAGAPASSPEAPPAEQDPVQLKTQLEWTEAILEDEQTQRQKLTAEFEEAQTSACRLQEELEKLRTAGPLESSETEEASQLKERLEKEKKLTSDLGRAATRLQELLKTTQEQLAREKDTVKKLQEQLEKAEDGSSSKEGTSV	0.6577		-0.1928	
LRRC47 (protein, UniProt Q8N1G4 2-583, looked up) Leucine-rich …: AAAAVSESWPELELAERERRRELLLTGPGLEERVRAAGGQLPPRLFTLPLLHYLEVSGCGSLRAPGPGLAQGLPQLHSLVLRRNALGPGLSPELGPLPALRVLDLSGNALEALPPGQGLGPAEPPGLPQLQSLNLSGNRLRELPADLARCAPRLQSLNLTGNCLDSFPAELFRPGALPLLSELAAADNCLRELSPDIAHLASLKTLDLSNNQLSEIPAELADCPKLKEINFRGNKLRDKRLEKMVSGCQTRSILEYLRVGGRGGGKGKGRAEGSEKEESRRKRRERKQRREGGDGEEQDVGDAGRLLLRVLHVSENPVPLTVRVSPEVRDVRPYIVGAVVRGMDLQPGNALKRFLTSQTKLHEDLCEKRTAATLATHELRAVKGPLLYCARPPQDLKIVPLGRKEAKAKELVRQLQLEAEEQRKQKKRQSVSGLHRYLHLLDGNENYPCLVDADGDVISFPPITNSEKTKVKKTTSDLFLEVTSATSLQICKDVMDALILKMAEMKKYTLENKEEGSLSDTEADAVSGQLPDPTTNPSAGKDGPSLLVVEQVRVVDLEGSLKVVYPSKADLATAPPHVTVVR	0.6799		1.1154	
MOV10 (protein, UniProt Q9HCE1 1-1003, looked up) Helicase MOV-10: MPSKFSCRQLREAGQCFESFLVVRGLDMETDRERLRTIYNRDFKISFGTPAPGFSSMLYGMKIANLAYVTKTRVRFFRLDRWADVRFPEKRRMKLGSDISKHHKSLLAKIFYDRAEYLHGKHGVDVEVQGPHEARDGQLLIRLDLNRKEVLTLRLRNGGTQSVTLTHLFPLCRTPQFAFYNEDQELPCPLGPGECYELHVHCKTSFVGYFPATVLWELLGPGESGSEGAGTFYIARFLAAVAHSPLAAQLKPMTPFKRTRITGNPVVTNRIEEGERPDRAKGYDLELSMALGTYYPPPRLRQLLPMLLQGTSIFTAPKEIAEIKAQLETALKWRNYEVKLRLLLHLEELQMEHDIRHYDLESVPMTWDPVDQNPRLLTLEVPGVTESRPSVLRGDHLFALLSSETHQEDPITYKGFVHKVELDRVKLSFSMSLLSRFVDGLTFKVNFTFNRQPLRVQHRALELTGRWLLWPMLFPVAPRDVPLLPSDVKLKLYDRSLESNPEQLQAMRHIVTGTTRPAPYIIFGPPGTGKTVTLVEAIKQVVKHLPKAHILACAPSNSGADLLCQRLRVHLPSSIYRLLAPSRDIRMVPEDIKPCCNWDAKKGEYVFPAKKKLQEYRVLITTLITAGRLVSAQFPIDHFTHIFIDEAGHCMEPESLVAIAGLMEVKETGDPGGQLVLAGDPRQLGPVLRSPLTQKHGLGYSLLERLLTYNSLYKKGPDGYDPQFITKLLRNYRSHPTILDIPNQLYYEGELQACADVVDRERFCRWAGLPRQGFPIIFHGVMGKDEREGNSPSFFNPEEAATVTSYLKLLLAPSSKKGKARLSPRSVGVISPYRKQVEKIRYCITKLDRELRGLDDIKDLKVGSVEEFQGQERSVILISTVRSSQSFVQLDLDFNLGFLKNPKRFNVAVTRAKALLIIVGNPLLLGHDPDWKVFLEFCKENGGYTGCPFPAKLDLQQGQNLLQGLSKLSPSTSGPHSHDYLPQEREGEGGLSLQVEPEWRNEL	0.6679		0.6155	
PNPLA6 (protein, UniProt Q8IY17 1-1375, looked up) Patatin-like phospholipase …: MEAPLQTGMMGTSSHGLATNSSGAKVAERDGFQDVLAPGEGSAGRICGAQPVPFVPQVLGVMIGAGVAVVVTAVLILLVVRRLRVPKTPAPDGPRYRFRKRDKVLFYGRKIMRKVSQSTSSLVDTSVSATSRPRMRKKLKMLNIAKKILRIQKETPTLQRKEPPPAVLEADLTEGDLANSHLPSEVLYMLKNVRVLGHFEKPLFLELCRHMVFQRLGQGDYVFRPGQPDASIYVVQDGLLELCLPGPDGKECVVKEVVPGDSVNSLLSILDVITGHQHPQRTVSARAARDSTVLRLPVEAFSAVFTKYPESLVRVVQIIMVRLQRVTFLALHNYLGLTNELFSHEIQPLRLFPSPGLPTRTSPVRGSKRMVSTSATDEPRETPGRPPDPTGAPLPGPTGDPVKPTSLETPSAPLLSRCVSMPGDISGLQGGPRSDFDMAYERGRISVSLQEEASGGSLAAPARTPTQEPREQPAGACEYSYCEDESATGGCPFGPYQGRQTSSIFEAAKQELAKLMRIEDPSLLNSRVLLHHAKAGTIIARQGDQDVSLHFVLWGCLHVYQRMIDKAEDVCLFVAQPGELVGQLAVLTGEPLIFTLRAQRDCTFLRISKSDFYEIMRAQPSVVLSAAHTVAARMSPFVRQMDFAIDWTAVEAGRALYRQGDRSDCTYIVLNGRLRSVIQRGSGKKELVGEYGRGDLIGVVEALTRQPRATTVHAVRDTELAKLPEGTLGHIKRRYPQVVTRLIHLLSQKILGNLQQLQGPFPAGSGLGVPPHSELTNPASNLATVAILPVCAEVPMVAFTLELQHALQAIGPTLLLNSDIIRARLGASALDSIQEFRLSGWLAQQEDAHRIVLYQTDASLTPWTVRCLRQADCILIVGLGDQEPTLGQLEQMLENTAVRALKQLVLLHREEGAGPTRTVEWLNMRSWCSGHLHLRCPRRLFSRRSPAKLHELYEKVFSRRADRHSDFSRLARVLTGNTIALVLGGGGARGCSHIGVLKALEEAGVPVDLVGGTSIGSFIGALYAEERSASRTKQRAREWAKSMTSVLEPVLDLTYPVTSMFTGSAFNRSIHRVFQDKQIEDLWLPYFNVTTDITASAMRVHKDGSLWRYVRASMTLSGYLPPLCDPKDGHLLMDGGYINNLPADIARSMGAKTVIAIDVGSQDETDLSTYGDSLSGWWLLWKRLNPWADKVKVPDMAEIQSRLAYVSCVRQLEVVKSSSYCEYLRPPIDCFKTMDFGKFDQIYDVGYQYGKAVFGGWSRGNVIEKMLTDRRSTDLNESRRADVLAFPSSGFTDLAEIVSRIEPPTSYVSDGCADGEESDCLTEYEEDAGPDCSRDEGGSPEGASPSTASEMEEEKSILRQRRCLPQEPPGSATDA	0.7127		1.692	

More lines, main results first:

Difference (log2), PP1 vs untreated [1, 2] [log2]	Difference (log2), PP1 vs untreated ([1]; log2 difference, pairwise comparison PP1 vs untreated, label-free quantification)	Molecule	Difference (log2), untreated vs GFP (GFP-14-3-3β; [3]) [log2]	Difference (log2), untreated vs GFP (GFP-14-3-3β; log2 difference, pairwise comparison untreated vs GFP, label-free quantification)
0.6719		CAV1 (protein, UniProt Q03135 2-178, looked up) Caveolin-1: SGGKYVDSEGHLYTVPIREQGNIYKPNNKAMADELSEKQVYDAHTKEIDLVNRDPKHLNDDVVKIDFEDVIAEPEGTHSFDGIWKASFTTFTVTKYWFYRLLSALFGIPMALIWGIYFAILSFLHIWAVVPCIKSFLIEIQCISRVYSIYVHTVCDPLFEAVGKIFSNVRINLQKEI	0.3485	
0.7375		UBAP2L (protein, UniProt Q14157 1-1087, looked up) Ubiquitin-associated protein …: MMTSVGTNRARGNWEQPQNQNQTQHKQRPQATAEQIRLAQMISDHNDADFEEKVKQLIDITGKNQDECVIALHDCNGDVNRAINVLLEGNPDTHSWEMVGKKKGVSGQKDGGQTESNEEGKENRDRDRDYSRRRGGPPRRGRGASRGREFRGQENGLDGTKSGGPSGRGTERGRRGRGRGRGGSGRRGGRFSAQGMGTFNPADYAEPANTDDNYGNSSGNTWNNTGHFEPDDGTSAWRTATEEWGTEDWNEDLSETKIFTASNVSSVPLPAENVTITAGQRIDLAVLLGKTPSTMENDSSNLDPSQAPSLAQPLVFSNSKQTAISQPASGNTFSHHSMVSMLGKGFGDVGEAKGGSTTGSQFLEQFKTAQALAQLAAQHSQSGSTTTSSWDMGSTTQSPSLVQYDLKNPSDSAVHSPFTKRQAFTPSSTMMEVFLQEKSPAVATSTAAPPPPSSPLPSKSTSAPQMSPGSSDNQSSSPQPAQQKLKQQKKKASLTSKIPALAVEMPGSADISGLNLQFGALQFGSEPVLSDYESTPTTSASSSQAPSSLYTSTASESSSTISSNQSQESGYQSGPIQSTTYTSQNNAQGPLYEQRSTQTRRYPSSISSSPQKDLTQAKNGFSSVQATQLQTTQSVEGATGSAVKSDSPSTSSIPPLNETVSAASLLTTTNQHSSSLGGLSHSEEIPNTTTTQHSSTLSTQQNTLSSSTSSGRTSTSTLLHTSVESEANLHSSSSTFSTTSSTVSAPPPVVSVSSSLNSGSSLGLSLGSNSTVTASTRSSVATTSGKAPPNLPPGVPPLLPNPYIMAPGLLHAYPPQVYGYDDLQMLQTRFPLDYYSIPFPTPTTPLTGRDGSLASNPYSGDLTKFGRGDASSPAPATTLAQPQQNQTQTHHTTQQTFLNPALPPGYSYTSLPYYTGVPGLPSTFQYGPAVFPVAPTSSKQHGVNVSVNASATPFQQPSGYGSHGYNTGVSVTSSNTGVPDISGSVYSKTQQSFEKQGFHSGTPAASFNLPSALGSGGPINPATAAAYPPAPFMHILTPHQQPHSQILHHHLQQDGQTGSGQRSQTSSIPQKPQTNKSAYNSYSWGAN	-0.6949	
	2.257	SSR4 (protein, UniProt P51571 24-173, looked up) Translocon-associated protein …: EACLEPQITPSYYTTSDAVISTETVFIVEISLTCKNRVQNMALYADVGGKQFPVTRGQDVGRYQVSWSLDHKSAHAGTYEVRFFDEESYSLLRKAQRNNEDISIIPPLFTVSVDHRGTWNGPWVSTEVLAAAIGLVIYYLAFSAKSHIQA		0.4182
